Laboratory results: PMC3963495

Target: microtubules (polymer of tubulin)
Assay: single-molecule TIRF microscopy on microtubules

Sequence of microtubules (polymer of tubulin) (P68363 whole entry, chain 1 of 2): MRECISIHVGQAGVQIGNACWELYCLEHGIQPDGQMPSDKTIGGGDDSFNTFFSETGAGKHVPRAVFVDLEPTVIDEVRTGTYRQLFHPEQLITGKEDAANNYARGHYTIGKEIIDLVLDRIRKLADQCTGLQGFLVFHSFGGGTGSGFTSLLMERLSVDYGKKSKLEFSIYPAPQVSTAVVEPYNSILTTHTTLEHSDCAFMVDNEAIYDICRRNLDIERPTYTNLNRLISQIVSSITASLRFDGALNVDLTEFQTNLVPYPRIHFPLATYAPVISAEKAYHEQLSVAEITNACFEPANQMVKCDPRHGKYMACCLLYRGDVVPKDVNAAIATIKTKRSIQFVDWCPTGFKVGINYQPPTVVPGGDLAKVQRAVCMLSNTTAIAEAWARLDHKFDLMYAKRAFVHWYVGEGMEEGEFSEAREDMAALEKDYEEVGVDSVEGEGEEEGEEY
Sequence of microtubules (polymer of tubulin) (A8K068 whole entry, chain 2 of 2, further chain): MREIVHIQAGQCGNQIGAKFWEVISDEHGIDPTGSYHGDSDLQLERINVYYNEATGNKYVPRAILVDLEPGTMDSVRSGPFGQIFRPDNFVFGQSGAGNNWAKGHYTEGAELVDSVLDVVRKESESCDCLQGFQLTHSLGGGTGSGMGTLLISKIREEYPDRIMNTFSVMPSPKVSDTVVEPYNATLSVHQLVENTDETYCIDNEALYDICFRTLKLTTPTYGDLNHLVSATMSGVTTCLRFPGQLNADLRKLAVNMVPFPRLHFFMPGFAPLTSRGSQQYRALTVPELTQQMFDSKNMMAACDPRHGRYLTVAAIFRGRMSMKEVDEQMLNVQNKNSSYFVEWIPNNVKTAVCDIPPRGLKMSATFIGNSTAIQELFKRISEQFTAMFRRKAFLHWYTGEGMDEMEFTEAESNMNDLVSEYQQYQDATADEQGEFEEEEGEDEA

- dwell time: 53 ms
- mean dwell time: 0.054 s
Substance: EB1_(FKBP) (human EB1 fused at its C-terminus to FKBP)
